Assay [1] concerns the target ACE2(18–740)-QMP: truncated dimeric human ACE2 (residues 18–740) fused to the N-terminal end of engi (human) (UniProt Q9BYF1). Put plainly: SPR.
Assay [2] shares this target. Put plainly: SPR; pH 5.5.

Sequence of soluble His-tagged human neonatal Fc receptor (human FcRn-His) (P55899 24-297): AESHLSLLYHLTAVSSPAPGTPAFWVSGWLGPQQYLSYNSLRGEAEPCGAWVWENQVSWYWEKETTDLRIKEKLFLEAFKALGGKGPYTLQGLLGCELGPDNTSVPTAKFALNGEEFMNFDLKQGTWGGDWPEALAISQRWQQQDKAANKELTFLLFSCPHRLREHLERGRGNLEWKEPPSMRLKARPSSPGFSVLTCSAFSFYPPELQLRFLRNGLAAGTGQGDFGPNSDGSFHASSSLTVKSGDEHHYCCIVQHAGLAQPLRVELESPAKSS
Sequence of soluble His-tagged human neonatal Fc receptor (human FcRn-His) (P61769 21-119): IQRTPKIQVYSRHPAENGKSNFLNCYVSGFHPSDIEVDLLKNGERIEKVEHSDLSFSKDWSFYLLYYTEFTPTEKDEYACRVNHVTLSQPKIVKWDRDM

Usually kon stands for the rate constant with which the complex forms. A word on the Kd: it is the concentration at which binding is half-saturated. Read a low Kd as higher affinity. The term koff denotes the first-order rate constant of dissociation. Low values mean slow dissociation, high ones fast dissociation. Consider “soluble His-tagged human neonatal Fc receptor (human FcRn-His) (from UniProt P55899 24-297; P61769 21-119)”, for which the on-rate (kon) in assay [1] amounted to 254000 M⁻¹ s⁻¹. Besides, in assay [2], the Kd is 0.8 nM and the koff was found to be 0.0002 s⁻¹.

Values taken from paper PMC10703496.
